{
  "source": "paper doi:10.1101/144295",
  "about": "“Human PRDM9 can bind and activate promoters, and other zinc-finger proteins associate with reduced recombination in cis” (bioRxiv, 2017)",
  "proteins": {"B1": {"name": "full-length human PRDM9 (B allele), C-terminally tagged with HA or V5 (natural protein)", "chain": "not shown", "notes": "218 synonymous base changes in the zinc finger exon; An HA and a V5 version were made; The C-terminal cassette is linker-TwinStrep-linker-HA/V5-linker-P2A followed by YFP; vector pLENTI CMV/TO Puro DEST (Addgene plasmid # 17293); YFP probably separates at the P2A site (surmised); also called Human-HA; Human-V5; source: HEK293T, transfected (FuGENE-HD), in lysate; not shown: HA or V5, C-terminal, …"}},
  "biological_target": "the molecule itself",
  "assay": "co-IP; competitive co-IP: HEK293T transfected with equimolar DNA of three constructs (one bait with one tag, Human and Chimp prey with the other tag); IP against the bait's tag, western blot against the prey's tag; replicated with reversed tags",
  "data": [
    {"protein": "B1", "values": [
      {"measurement": "fold more efficiently co-precipitated than the Chimp prey (Human bait)", "result": "> 2", "unit": "fold"}
    ]}
  ]
}
